Test results taken from patent US20200262888A1 (HANMI PHARM, published 2020).
Non-standard residues stand in square brackets, D forms with d. No end group written: not given here. *: point of attachment. Acetyl(2-(4-imidazolyl)) = O=C(Cc1c[nH]cn1)*

T1: human GLP-2 receptor (human, UniProt O95838 1-553)
T1 sequence (looked up): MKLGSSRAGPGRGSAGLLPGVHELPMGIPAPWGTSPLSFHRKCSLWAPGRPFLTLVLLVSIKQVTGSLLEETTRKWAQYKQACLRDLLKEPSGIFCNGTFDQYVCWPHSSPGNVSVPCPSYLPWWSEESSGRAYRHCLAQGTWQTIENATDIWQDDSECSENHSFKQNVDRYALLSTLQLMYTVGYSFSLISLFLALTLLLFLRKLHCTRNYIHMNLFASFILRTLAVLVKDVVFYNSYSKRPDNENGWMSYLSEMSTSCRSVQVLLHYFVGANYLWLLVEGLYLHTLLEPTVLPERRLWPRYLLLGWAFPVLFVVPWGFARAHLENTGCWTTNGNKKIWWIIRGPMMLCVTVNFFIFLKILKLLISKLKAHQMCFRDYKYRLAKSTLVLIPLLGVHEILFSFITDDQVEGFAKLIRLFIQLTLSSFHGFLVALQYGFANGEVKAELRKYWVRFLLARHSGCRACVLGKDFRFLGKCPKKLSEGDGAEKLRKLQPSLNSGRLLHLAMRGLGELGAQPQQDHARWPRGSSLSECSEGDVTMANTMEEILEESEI


Target: T1, human GLP-2 receptor
Assay: cell-based or functional assay

Molecule	In vitro activity compared to human GLP-2 (%) (relative titer from EC50 of cAMP accumulation, CHO-K1 cells expressing human GLP-2 receptor)
Teduglutide (Gattex, Shire) (peptide)	148
[Acetyl(2-(4-imidazolyl))]GDGSFSDEMNTILDNLAARDFINWLIQTRITDC [CA GLP-2 RC]	120
XGDGSFSDEMNTILDNLAARDFINWLIQTKITDC (position 1 is imidazoacetyldeshistidine (caH) instead of histidine) [CA GLP-2 KC]	149
XGDGSFSDEMNTILDNLAARDFINWLIQTKITDK (position 1 is imidazoacetyldeshistidine (caH) instead of histidine) [CA GLP-2 KK]	206
[Acetyl(2-(4-imidazolyl))]GDGSFSDEMNTILDNLAARDFINWLIQTRITDK [CA GLP-2 RK]	333
